Results on 75 sequences are retold here after the supplement of paper PMC10724198.

Data set [1] concerns Saccharomyces cerevisiae. The data set is described as follows: protein stability index of tFT-peptide fusion in wild type (PSI (0-1 scale)); higher = more stable (slower turnover). The settings on record: genetic background: wild type. The method, then: (§1)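 MPS profiling in S. cerevisiae of two library types built from selected 12-aa C-degron peptides (IN1, IN2, LN1, LN3, VN2, R1-R5, W1-W3, Atg1 and Rpa12 C-termini): saturation mutagenesis libraries and C-terminal +1 capping libraries (13 aa). Each peptide is fused to the C-terminus of a sfGFP-mCherry timer, after a GGGS linker. Cells are FACS-sorted into 8 mCherry/sfGFP bins and sequenced. PSI runs from 0 (unstable) to 1 (stable), measured once in wild type and in the das1Δ or doa10Δ background.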

For data set [2], the system named is Saccharomyces cerevisiae. Briefly: protein stability index of tFT-peptide fusion in deletion strain of DAS1 (PSI (0-1 scale)); higher = more stable (slower turnover). On the procedure:
as §1

The test system of data set [3] is Saccharomyces cerevisiae. The data set is described as follows: protein stability index of tFT-peptide fusion (C-terminal peptide) (PSI (0-1 scale)); higher = more stable (slower turnover). The settings on record: temperature: 30 C. On the procedure:
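MPS profiling in S. cerevisiae of the yeast C-terminome library: the last 12 aa of each annotated ORF are fused to the C-terminus of a sfGFP-mCherry timer, after a GGGS linker. Cells are FACS-sorted into 8 mCherry/sfGFP bins and deep-sequenced. PSI runs from 0 (unstable) to 1 (stable); wild type and das1Δ backgrounds, two technical replicates each.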

Where [4] appears, read: genetic background: das1 deletion.

± gives the standard deviation of the averaged measurements.
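Throughout, for protein stability index of tFT-peptide fusion in deletion strain of DAS1: PSI is a weighted mean of each variant's read distribution over the sorted stability bins, computed only for variants having over 10 reads in total.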
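Throughout, for protein stability index of tFT-peptide fusion in wild type: PSI derived as read-weighted mean over the 8 sorting bins, only variants exceeding 10 total reads kept, mCherry placed adjacent to the peptide and sfGFP distal.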

Consider AAWRVGLWRGAS, for which the protein stability index in data set [1] was determined as 0.503; in data set [2], 0.72.
As to AFWRVGLWRGAS, the results for the protein stability index in data set [1] and in data set [2] were 0.496 and 0.704, respectively.
The corresponding values for AKWRVGLWRGAS are 0.392 and 0.692.
The corresponding values for ARARVGLWRGAS are 0.531 and 0.688.
For ARGRVGLWRGAS, the protein stability index in data set [1] is 0.432; in data set [2], 0.685.
The corresponding values for ARWHVGLWRGAS are 0.365 and 0.71.
Take ARWPVGLWRGAS: the protein stability index in data set [1] came out at 0.399; in data set [2], 0.703.
The corresponding values for ARWQVGLWRGAS are 0.444 and 0.656.
For ARWRFGLWRGAS the same measures were 0.581 and 0.698.
Regarding ARWRHGLWRGAS, the protein stability index in data set [1] was found to be 0.666; in data set [2], 0.685.
For ARWRVGLARGAS the same measures were 0.707 and 0.692.
For ARWRVGLNRGAS the same measures were 0.68 and 0.668.
The corresponding values for ARWRVGLQRGAS are 0.677 and 0.69.
With ARWRVGLSRGAS, the protein stability index in data set [1] came out at 0.669; in data set [2] it was 0.695.
For ARWRVGLWEGAS, the protein stability index in data set [1] stood at 0.675; in data set [2], 0.658.
For ARWRVGLWPGAS the same measures were 0.71 and 0.689.
The corresponding values for ARWRVGLWRAAS are 0.117 and 0.683.
For ARWRVGLWRDAS the same measures were 0.6 and 0.702.
ARWRVGLWREAS: the protein stability index was 0.169 in data set [1] and 0.668 in data set [2].
Regarding ARWRVGLWRGAC, the protein stability index came to 0.123 in data set [1] and 0.681 in data set [2].
For the sequence ARWRVGLWRGASD, the protein stability index in data set [1] was found to be 0.688; in data set [2], 0.686.
The corresponding values for ARWRVGLWRGASF are 0.661 and 0.679.
The corresponding values for ARWRVGLWRGASI are 0.652 and 0.665.
On to ARWRVGLWRGASQ, for which the protein stability index is 0.661 in data set [1] and 0.646 in data set [2].
As to ARWRVGLWRGAST, the protein stability index amounted to 0.659 in data set [1] and 0.682 in data set [2].
The corresponding values for ARWRVGLWRGIS are 0.109 and 0.68.
The corresponding values for ARWRVGLWRGKS are 0.653 and 0.679.
For ARWRVGLWRGSS the same measures were 0.516 and 0.686.
As to ARWRVGLWRGTS, the values for the protein stability index in data set [1] and in data set [2] were 0.318 and 0.682, respectively.
For ARWRVGLWRPAS the same measures were 0.645 and 0.691.
Take ARWRVGLWRSAS: the protein stability index in data set [1] was 0.102; in data set [2] it was 0.693.
For ARWRVPLWRGAS the same measures were 0.646 and 0.684.
For ARWTVGLWRGAS the same measures were 0.495 and 0.692.
The corresponding values for ARYRVGLWRGAS are 0.567 and 0.668.
Turning to CLIQPLPVQFLN, the figures for the protein stability index in data set [1] and in data set [2] were 0.103 and 0.548, respectively.
The corresponding values for CRSCGYKFRTNN are 0.243 and 0.708.
For CSSCGYKFRTNN the same measures were 0.216 and 0.695.
With CTGCGYKFRTNN, the figures for the protein stability index in data set [1] and in data set [2] were 0.231 and 0.678, respectively.
For CTICGYKFRTNN the same measures were 0.27 and 0.67.
For the sequence CTQCGYKFRTNN, the figures for the protein stability index in data set [1] and in data set [2] were 0.25 and 0.697, respectively.
The corresponding values for CTRCGYKFRTNN are 0.231 and 0.699.
The corresponding values for CTSCGNKFRTNN are 0.52 and 0.695.
On to CTSCGYDFRTNN, for which the protein stability index turned out to be 0.639 in data set [1] and 0.691 in data set [2].
For CTSCGYKFRTHN the same measures were 0.325 and 0.717.
Regarding CTSCGYKFRTMN, the results for the protein stability index in data set [1] and in data set [2] were 0.186 and 0.682, respectively.
For CTSCGYKFRTNK the same measures were 0.689 and 0.704.
With VQRSASVVERQE [DUS4 C-terminal 12 aa], the protein stability index in data set [3] (setting [4]) came to 0.6971 ± 0.0051; in data set [3] (genetic background: wild type), 0.694 ± 0.0013.
For “VQRVILITHLNV [YOL083C-A C-terminal 12 aa]” the same measures were 0.6054 ± 0.0053 and 0.616 ± 0.0084.
Regarding VREYNKYCEAIL [VPS13 C-terminal 12 aa], the protein stability index amounted to 0.687 ± 0.01 in data set [3] (setting [4]) and 0.667 ± 0.033 in data set [3] (genetic background: wild type).
Consider VRQMNRLATPLI [PUS2 C-terminal 12 aa], for which the results for the protein stability index in data set [3] (setting [4]) and in data set [3] (genetic background: wild type) were 0.7095 ± 0.0057 and 0.7391 ± 0.0066, respectively.
For VTGKEKFEKLRD [SPG3 C-terminal 12 aa] the same measures were 0.724 ± 0.0027 and 0.685 ± 0.024.
With VTGPHDRWYVVG [ATG14 C-terminal 12 aa], the protein stability index in data set [3] (setting [4]) was determined as 0.76 ± 0.019; in data set [3] (genetic background: wild type), 0.659 ± 0.024.
In the case of VTLLQMKKKLEG [PET20 C-terminal 12 aa], the protein stability index stood at 0.6926 ± 0.0053 in data set [3] (setting [4]) and 0.761 ± 0.042 in data set [3] (genetic background: wild type).
For VTPEEDEEEDEE [RPL22A C-terminal 12 aa] the same measures were 0.68 ± 0.03 and 0.676 ± 0.062.
On to VYGSERDIRAKF [TES1 C-terminal 12 aa], for which the protein stability index came to 0.8078 ± 0.007 in data set [3] (setting [4]) and 0.816 ± 0.068 in data set [3] (genetic background: wild type).
As for VYKDWEMNLMLS [ARG81 C-terminal 12 aa], the protein stability index in data set [3] (setting [4]) turned out to be 0.727 ± 0.025; in data set [3] (genetic background: wild type), 0.656 ± 0.024.
For VYLSVIILMGNG [EMA17 C-terminal 12 aa] the same measures were 0.212 ± 0.024 and 0.247 ± 0.012.
The corresponding values for WEDKYPEMGVTV [YHL044W C-terminal 12 aa] are 0.6911 ± 0.003 and 0.706 ± 0.0089.
Consider WTWLDGKFPTFA [GRE3 C-terminal 12 aa], for which the protein stability index in data set [3] (setting [4]) was found to be 0.751 ± 0.023; in data set [3] (genetic background: wild type) it was 0.7093 ± 0.0009.
The corresponding values for WVCQEILKLCKD [NRK1 C-terminal 12 aa] are 0.675 ± 0.0095 and 0.713 ± 0.036.
The corresponding values for WVRLPTTSHGLD [SPO73 C-terminal 12 aa] are 0.71917 ± 0.00042 and 0.733 ± 0.016.
With WYQIVVQMIYIC [PSY1 C-terminal 12 aa], the protein stability index in data set [3] (setting [4]) amounted to 0.186 ± 0.0065; in data set [3] (genetic background: wild type) it was 0.0907 ± 0.006.
The corresponding values for YDLVEKCVWRGI [ORC3 C-terminal 12 aa] are 0.707 ± 0.041 and 0.716 ± 0.022.
The corresponding values for YEEALKLGWDKN [OYE2 C-terminal 12 aa] are 0.735 ± 0.046 and 0.762 ± 0.0096.
For YEEAVDLGWNKN [OYE3 C-terminal 12 aa] the same measures were 0.721 ± 0.009 and 0.714 ± 0.042.
Turning to YGSAPSLDSLFL [YJL067W C-terminal 12 aa], the protein stability index stood at 0.725 ± 0.02 in data set [3] (setting [4]) and 0.6981 ± 0.0068 in data set [3] (genetic background: wild type).
Consider YGTSYVFAISFK [YNL266W C-terminal 12 aa], for which the protein stability index stood at 0.602 ± 0.036 in data set [3] (setting [4]) and 0.606 ± 0.0098 in data set [3] (genetic background: wild type).
Turning to “YIHTYIYLLFVY [YIL100C-A C-terminal 12 aa]”, the protein stability index in data set [3] (setting [4]) was 0.222 ± 0.01; in data set [3] (genetic background: wild type) it was 0.198 ± 0.036.
For YIVECIKNVLTK [APL3 C-terminal 12 aa] the same measures were 0.686 ± 0.038 and 0.698 ± 0.018.
For YKKMKEMRKKRR [FCF2 C-terminal 12 aa] the same measures were 0.703 ± 0.022 and 0.71 ± 0.05.
For YLADELSKALLA [RFA1 C-terminal 12 aa] the same measures were 0.673 ± 0.0099 and 0.6545 ± 0.0044.
As for YMMNSQSPRGKI [POM34 C-terminal 12 aa], the protein stability index in data set [3] (setting [4]) stood at 0.71 ± 0.0093; in data set [3] (genetic background: wild type) it was 0.732 ± 0.074.
For YNITQQILQFLH [VAC8 C-terminal 12 aa] the same measures were 0.701 ± 0.024 and 0.327 ± 0.0072.
The corresponding values for YPAREGEVLRPN [AKR2 C-terminal 12 aa] are 0.675 ± 0.025 and 0.697 ± 0.017.
For “YSAVGNFFSRKK [YGR035W-A C-terminal 12 aa]” the same measures were 0.718 ± 0.019 and 0.6696 ± 0.002.
